Legend:
Assay in all cases: ProtoArray, GST-treated control array;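 note: human protein microarray (about 9500 recombinant proteins) incubated overnight with GST alone plus SAM cofactor as the negative control for G9a SET domain methylation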
[1] = biological target: T1, SEC22B-Vesicle-trafficking protein SEC22b (human, UniProt O75396 1-215)
T1 sequence (looked up): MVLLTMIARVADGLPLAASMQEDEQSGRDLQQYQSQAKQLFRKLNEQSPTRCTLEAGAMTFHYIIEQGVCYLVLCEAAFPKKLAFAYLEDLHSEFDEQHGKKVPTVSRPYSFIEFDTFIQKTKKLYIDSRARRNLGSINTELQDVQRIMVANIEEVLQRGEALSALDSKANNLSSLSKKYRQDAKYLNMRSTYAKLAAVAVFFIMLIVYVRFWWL

[2] = biological target: T2, SNFT-Jun dimerization protein p21SNFT (SNFT) (human, UniProt Q9NR55 1-127)
T2 sequence (looked up): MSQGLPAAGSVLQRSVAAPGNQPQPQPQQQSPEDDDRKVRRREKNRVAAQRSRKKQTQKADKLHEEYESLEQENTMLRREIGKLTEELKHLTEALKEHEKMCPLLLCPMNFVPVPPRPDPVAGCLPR

[3] = biological target: T3, RHBDD1-rhomboid domain containing 1 (RHBDD1) (human, UniProt Q8TEB9 1-315, limits assumed)
T3 sequence (looked up): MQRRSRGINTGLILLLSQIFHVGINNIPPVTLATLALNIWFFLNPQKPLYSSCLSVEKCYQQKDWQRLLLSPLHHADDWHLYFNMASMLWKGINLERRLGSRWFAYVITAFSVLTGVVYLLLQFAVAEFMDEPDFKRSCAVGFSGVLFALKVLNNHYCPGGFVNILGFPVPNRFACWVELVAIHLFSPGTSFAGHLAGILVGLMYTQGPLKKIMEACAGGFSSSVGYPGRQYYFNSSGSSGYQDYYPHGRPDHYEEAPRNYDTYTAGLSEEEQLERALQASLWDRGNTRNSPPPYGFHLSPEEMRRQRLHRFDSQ

[4] = biological target: T4, CRYZL1-crystallin, zeta (quinone reductase)-like 1 (CRYZL1) (human, UniProt O95825 1-349, limits assumed)
T4 sequence (looked up): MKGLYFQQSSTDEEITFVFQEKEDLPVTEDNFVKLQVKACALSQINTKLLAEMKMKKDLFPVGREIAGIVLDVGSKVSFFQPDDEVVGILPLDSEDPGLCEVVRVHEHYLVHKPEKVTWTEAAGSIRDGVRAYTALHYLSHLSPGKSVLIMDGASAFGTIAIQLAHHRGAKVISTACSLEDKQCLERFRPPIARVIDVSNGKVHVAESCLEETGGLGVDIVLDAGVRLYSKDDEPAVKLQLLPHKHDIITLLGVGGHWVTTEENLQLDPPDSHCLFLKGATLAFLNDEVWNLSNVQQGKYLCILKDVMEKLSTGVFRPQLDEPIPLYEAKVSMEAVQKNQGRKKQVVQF

[5] = biological target: T5, RASSF4-Ras association (RaIGDS/AF-6) domain family 4 (RASSF4) (human, UniProt Q9H2L5 1-321, limits assumed)
T5 sequence (looked up): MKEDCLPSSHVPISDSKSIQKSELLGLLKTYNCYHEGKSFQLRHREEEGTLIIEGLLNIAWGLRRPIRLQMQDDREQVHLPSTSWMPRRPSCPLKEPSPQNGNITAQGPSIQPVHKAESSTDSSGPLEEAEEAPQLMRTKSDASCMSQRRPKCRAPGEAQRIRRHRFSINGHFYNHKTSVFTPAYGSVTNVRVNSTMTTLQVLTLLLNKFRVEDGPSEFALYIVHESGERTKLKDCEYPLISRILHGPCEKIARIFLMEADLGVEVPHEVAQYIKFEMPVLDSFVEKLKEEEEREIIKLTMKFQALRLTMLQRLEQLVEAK

[6] = biological target: T6, GNPTAB-N-acetylglucosamine-1-phosphate transferase, alpha and beta subunits (GNPTAB) (human, UniProt Q3T906 1-1256, limits assumed)
T6 sequence (looked up): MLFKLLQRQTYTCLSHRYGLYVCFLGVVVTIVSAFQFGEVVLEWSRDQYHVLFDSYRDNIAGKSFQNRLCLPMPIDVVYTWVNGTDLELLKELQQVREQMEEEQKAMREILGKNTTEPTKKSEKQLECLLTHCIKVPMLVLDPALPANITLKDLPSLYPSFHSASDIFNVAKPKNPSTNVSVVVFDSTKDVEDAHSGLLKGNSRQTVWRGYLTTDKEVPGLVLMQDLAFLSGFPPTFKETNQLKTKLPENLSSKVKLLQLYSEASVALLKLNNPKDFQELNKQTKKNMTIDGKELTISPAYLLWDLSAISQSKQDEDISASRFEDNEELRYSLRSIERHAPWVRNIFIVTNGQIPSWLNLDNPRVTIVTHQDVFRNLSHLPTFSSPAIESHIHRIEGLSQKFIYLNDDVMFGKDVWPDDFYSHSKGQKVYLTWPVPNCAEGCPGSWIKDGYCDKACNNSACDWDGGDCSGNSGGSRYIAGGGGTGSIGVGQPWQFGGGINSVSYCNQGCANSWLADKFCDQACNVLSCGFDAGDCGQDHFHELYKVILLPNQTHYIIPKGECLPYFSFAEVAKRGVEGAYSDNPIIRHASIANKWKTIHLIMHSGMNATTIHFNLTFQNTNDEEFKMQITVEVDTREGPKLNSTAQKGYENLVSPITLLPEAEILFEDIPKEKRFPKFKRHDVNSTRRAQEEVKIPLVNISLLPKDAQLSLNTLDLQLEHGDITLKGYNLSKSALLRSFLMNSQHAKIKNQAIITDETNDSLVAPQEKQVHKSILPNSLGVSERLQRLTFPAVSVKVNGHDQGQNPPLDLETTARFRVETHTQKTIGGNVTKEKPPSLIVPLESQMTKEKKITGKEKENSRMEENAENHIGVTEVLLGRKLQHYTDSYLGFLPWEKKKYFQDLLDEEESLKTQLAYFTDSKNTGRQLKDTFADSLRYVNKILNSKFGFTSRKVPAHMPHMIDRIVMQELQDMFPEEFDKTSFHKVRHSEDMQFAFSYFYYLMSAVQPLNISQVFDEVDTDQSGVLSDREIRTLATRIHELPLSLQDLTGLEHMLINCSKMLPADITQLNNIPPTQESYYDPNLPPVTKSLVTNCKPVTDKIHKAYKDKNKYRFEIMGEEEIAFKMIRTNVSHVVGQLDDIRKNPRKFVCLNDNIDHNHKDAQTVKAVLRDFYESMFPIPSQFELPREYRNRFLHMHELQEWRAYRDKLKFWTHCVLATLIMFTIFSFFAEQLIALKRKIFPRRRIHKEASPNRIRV

[7] = biological target: DGKA-diacylglycerol kinase, alpha 80 kDa (DGKA) (human, UniProt P23743 1-735)
DGKA-diacylglycerol kinase, alpha 80 kDa (DGKA), sequence (P23743 whole entry): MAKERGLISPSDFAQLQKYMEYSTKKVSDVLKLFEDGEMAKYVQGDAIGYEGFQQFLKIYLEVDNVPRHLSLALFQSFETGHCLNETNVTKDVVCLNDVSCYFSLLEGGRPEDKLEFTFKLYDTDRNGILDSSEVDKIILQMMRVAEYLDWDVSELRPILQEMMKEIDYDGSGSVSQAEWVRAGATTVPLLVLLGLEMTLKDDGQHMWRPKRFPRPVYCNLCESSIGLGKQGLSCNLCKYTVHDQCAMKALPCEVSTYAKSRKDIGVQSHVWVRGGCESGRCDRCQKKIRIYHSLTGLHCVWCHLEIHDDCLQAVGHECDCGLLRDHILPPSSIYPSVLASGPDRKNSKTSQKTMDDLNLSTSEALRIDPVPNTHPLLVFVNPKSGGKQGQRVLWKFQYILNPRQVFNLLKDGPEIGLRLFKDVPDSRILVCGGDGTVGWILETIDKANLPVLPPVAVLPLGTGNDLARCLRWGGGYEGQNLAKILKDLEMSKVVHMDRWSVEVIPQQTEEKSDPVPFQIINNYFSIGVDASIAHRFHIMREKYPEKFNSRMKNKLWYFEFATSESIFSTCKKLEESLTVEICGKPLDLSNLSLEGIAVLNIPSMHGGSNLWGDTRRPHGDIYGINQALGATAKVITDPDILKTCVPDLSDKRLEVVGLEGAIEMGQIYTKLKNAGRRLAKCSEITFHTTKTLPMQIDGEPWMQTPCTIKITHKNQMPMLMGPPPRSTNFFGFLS

- GST Average SNR [1]: -0.797
- GST Average SNR [2]: 1.05
- GST Average SNR [3]: -0.11
- GST Average SNR [4]: -1.42
- GST Average SNR [5]: 1.16
- GST Average SNR [6]: 1.15
- GST Average SNR [7]: 1.23
B1: 3× Flag-3×MBT (designed binder)
chain: EEWSSSQPATGEKKECWSWESYLEEQKAITAPVSLFQDSQAVTHNKNGFKLGMKLEGIDPQHPSMYFILTVAEVCGYRLRLHFDGYSECHDFWVNANSPDIHPAGWFEKTGHKLQPPKGYKEEEFSWSQYLRSTRAQAAPKHLFVSQSHSPPPLGFQVGMKLEAVDRMNPSLVCVASVTDVVDSRFLVHFDNWDDTYDYWCDPSSPYIHPVGWCQKQGKPLTPPQDYPDPDNFCWEKYLEETGASAVPTWAFKVRPPHSFLVNMKLEAVDRRNPALIRVASVEDVEDHRIKIHFDGWSHGYDFWIDADHPDIHPAGWCSKTGHPLQPPLGPREPSSASPGG
notes: also called Flag-tagged 3×MBT; 3xFlag-3xMBT; not shown: made by PreScission cleavage of GST-3× Flag-3×MBT

From patent US20140274782A1 (Stanford University, published 2014)
